Here are results for two substances from PMC3280255.

In this assay the target is FUD, a 56-residue recombinant polypeptide based on the Functional Upstream Domain of the F1 adhesin of Streptococcus pyogenes (Streptococcus pyogenes). The assay is described as follows: ELISA; competitive enzyme-linked assay: high binding plates coated overnight at 4°C with 10 µg/mL FN; 0.3 nM biotinylated FUD with increasing concentrations of soluble 70K proteins; binding relative to no competitor.

For the substance “70K I150/242A (Ile-to-Ala mutations in the IGD motifs of 3FNI and 5FNI) (domain or fragment)”, the fold decrease in ability to compete, against wildtype 70K is 2 fold. Take “70K I480/572A (Ile-to-Ala mutations in the IGD motifs of 7FNI and 9FNI) (domain or fragment)”: the fold decrease in ability to compete, against wildtype 70K is 2 fold.
